Experimental findings from patent publication US7078511B1 are described below.

Experiment [1] addresses Drosophila melanogaster scavenger receptor type CI (Drosophila melanogaster).
The target of experiment [2] is hamster scavenger receptor type BI (hamster). Description: ^125I-AcLDL (5 µg/ml) binding at 4° C. to ldlA[haSR-BI] cells, no competitor.

acetylated low density lipoprotein came in with a ^125I-AcLDL Degradation (% No Competitor) (% No Competitor) in experiment [1] of 4.8. Moreover, the 125I-AcLDL binding (ng/mg cell protein) in experiment [2] was determined as 293.
For low density lipoprotein, the ^125I-AcLDL Degradation (% No Competitor) (% No Competitor) in experiment [1] was 97.6.
On the same count and under the same terms, the same measure for Poly D-glutamic acid (peptide): 34.
